# Reference: article doi:10.1101/2020.04.14.041046
# Target: actin filaments (rabbit skeletal muscle actin) (rabbit) (UniProt P68135)
# Assay: co-sedimentation
Kd [nM],Substance,stoichiometry N
,Rng2CHD fused with GFP to its N-terminus via a 16-residue linker (GFP-Rng2CHD) (domain or fragment),1
920,calponin-homology actin binding domain of fission yeast IQGAP Rng2 (Rng2CHD) (domain or fragment),
